Measurements from patent US7323541B2, “Polypeptide DNA thereof and use of the same” (Takeda Pharmaceutical Company Limited, priority 2001, dated 2008).

Molecular target: T1, TGR23-2 expressing CHO cells (Homo sapiens, UniProt Q6W5P4, N107I/Q344R)
T1 construct: the clones having the cDNA of TGR23-2, which is contained in pTB2174, were selected; expressed in transfected cells; host or cells: hamster CHO/dhfr- cells, vector pAKKO-111H (pAKKO-TGR23-2)
T1 sequence (Q6W5P4 1-371 N107I/Q344R): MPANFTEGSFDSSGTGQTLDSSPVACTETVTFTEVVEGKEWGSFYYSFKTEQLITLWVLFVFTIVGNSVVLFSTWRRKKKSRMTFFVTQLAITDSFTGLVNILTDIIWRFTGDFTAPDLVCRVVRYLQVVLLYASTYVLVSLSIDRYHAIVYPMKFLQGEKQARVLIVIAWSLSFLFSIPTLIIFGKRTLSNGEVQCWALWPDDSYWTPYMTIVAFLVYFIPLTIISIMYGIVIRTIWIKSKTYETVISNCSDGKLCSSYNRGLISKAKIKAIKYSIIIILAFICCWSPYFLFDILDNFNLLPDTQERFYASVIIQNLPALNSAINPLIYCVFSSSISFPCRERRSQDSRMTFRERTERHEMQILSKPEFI
Experiment: Enhancing activity of intracellular cAMP production
Format: cell-based
Conditions: with forskolin
Method: The CHO/TGR23-2 cells prepared in Example 1 and selected in Example 2 were plated on 24-well plate at 7×10^4 cells/well and cultured for 48 hours. The cells were washed with αMEM medium (pH7.5) containing 0.2 mM 3-isobutyl-methylxanthine, 0.05% BSA and 20 mM HEPES (hereafter, αMEM medium (pH7.5) containing 0.2 mM 3-isobutyl-methylxanthine, 0.05% BSA and 20 mM HEPES may be referred to as a reaction buffer). Subsequently, 0.5 ml of the reaction buffer was added, and the solution was incubated for 30 minutes in the incubator. The reaction buffer was removed and 0.25 ml of the reaction buffer was freshly added to the cells. Then, the cells were admixed with a sample and 0.25 ml of the reaction buffer containing 2 μM forskoline, and incubated at 37° C. for 30 minutes. Intracellular cAMP was extracted by removing the reaction solution and adding 0.5 ml of the solution for cell lysis attached with cAMP EIA Kit (Applied Biosystems). The cAMP level in the extract was quantified with the same kit. Based on this measured value, a calculation was made using the following formula, and the enhancing/inhibiting activity for cAMP production was represented by % of control. The activity of the sample-adding group was calculated using a control value configured in each plate. % of control=(X−C)/(T−C)×100
X: The cAMP level in the sample-adding group
T: The means of the cAMP level in 3 wells of positive control (no sample, with stimulus of forskoline)
C: The means of the cAMP level in 3 wells of negative control (no sample, without stimulus of forskoline)
In addition, for the same sample, in accordance with the method shown in Example 4, an arachidonic acid metabolite releasing activity was assayed.
Four microlitters each of the above-mentioned HPLC active fractions of rat whole brain extracts (Fraction numbers 18, 20 and 22 to 23) was added to 100 μl of 0.2 M ammonium acetate and incubated at 37° C. for 2 hours with 3 μg of Pronase. Subsequently, Pronase added, was inactivated by heating in boiling water for 10 minutes. To this solution, one ml of distilled water containing 0.05 mg of BSA and 0.05 mg of CHAPS was added. Further, it was lyophilized. For the lyophilized sample, enhancing activity for intracellular cAMP production was assayed by adding to TGR23-2 expressing CHO cells according to the method shown in Example 3.
Human TGR23-2 ligand (1-20) prepared by the method described in Example 17 was administered to TGR23-1 expressing CHO cells and TGR23-2 expressing CHO cells at a variety of concentrations according to the method described in Example 3, and the enhancing activity of intracellular cAMP production was determined.
Further, human TGR23-2 ligand (1-20) and rat TGR23-2 ligand (1-18) prepared by the method described in Example 19 were administered to TGR23-1 expressing CHO cells and TGR23-2 expressing CHO cells at a variety of concentrations, and the same assay as described above was carried out under the condition of no forskolin. A calculation was made using the following formula, and the enhancing activity for cAMP production was represented by % of control: % of control=X/C×100;
X: The cAMP level in the sample-adding group; and
C: Control (no sample, without stimulus of forskoline).

Sequence | enhancing activity of intracellular cAMP production
SFRNGVGSGVKKTS (Rat) [rat TGR23-2 ligand (1-14)] | specifically exhibits an enhancing activity for cAMP production
SFRNGVGSGVKKTSF (Rat) [rat TGR23-2 ligand (1-15)] | specifically exhibits an enhancing activity for cAMP production
